The subject of experiment [1] is HEK293T cells. The experiment can be described thus: cAMP production by mOREG-derived receptors expressed in HEK293T cells, eugenol as agonist (Experiment 1). The experiment is classed as cell-based.
Experiment [2] relates to HEK293T cells. Described as above. The experiment is classed as cell-based. Here is the method: Subsequently, the HEK293T cells were transfected with the above-mentioned three plasmids by a lipofection method. The HEK293T cells were incubated for 48 hours, and the β1AR consisting of the protein represented by SEQ ID NO: 03 was expressed on the cell membrane of the HEK293T cell.
The abbreviation “IBMX” means 3-isobutyl-1-methylxanthine. The IBMX is one of the phosphodiesterase inhibitors. The IBMX stabilizes cAMP, which is unstable.
The expression was conducted similarly to that of the step 2 of the reference example 1 except that the plasmid (Rho-mOREG) was used instead of the plasmid (β1AR). In this way, the Rho-mOREG (SEQ ID NO: 34) was expressed on a cell membrane.
Based on the measured cAMP concentration, a concentration increase value was calculated in accordance with the following equation: (Concentration increase value)=(the cAMP concentration measured when the concentration of the eugenol was 300μM)−(the cAMP concentration measured when the concentration of the eugenol was 0 μM)
The source holds these as a separate data set.

B1: Rho-myc-mOREG: mouse olfactory receptor for eugenol with N-terminal Rho tag and myc epitope tag (protein)
chain: MNGTEGPNFYVPFSNKTGVVEQKLISEEDLEFMTLSDGNHSGAVFTLLGFSDYPELTIPLFLIFLTIYSITVVGNIGMIVIIRINPKLHIPMYFFLSHLSFVDFCYSSIVAPKMLVNLVTMNRGISFVGCLVQFFFFCTFVVTESFLLGVMAYDRFVAIRNPLLYTVAMSQRLCAMLVLGSYAWGVVCSLILTCSALNLSFYGFNMINHFFCEFSSLLSLSRSDTSVSQLLLFVFATFNEISTLLIILLSYVLIVVTILKMKSASGRRKAFSTCASHLTAITIFHGTILFLYCVPNSKNSRHTVKVASVFYTVVIPMLNPLIYSLRNKDVKDTVKKIIGTKVYSS
modifications: Rho-myc-mOREG
Take B1: the “concentration increase value of the cAMP” value amounted to 0.0028 with HEK293T cells [1] (eugenol 30 μM), 0.0190 in the experiment on HEK293T cells [1] (eugenol 1000 μM) and 0.0060 in the experiment with HEK293T cells [2] (eugenol 300 μM (Table 5)).

B2: chimera2: EC1-IC1 domains of the β1AR, TM2-TM7 domains of the mOREG, IC4 domain of the β1AR (protein)
chain: MGAGALALGASEPCNLSSAAPLPDGAATAARLLVLASPPASLLPPASEGSAPLSQQWTAGMGLLLALIVLLIVVGNVLVIVAIAKTPRLQTLTNLTRPMYFFLSHLSFVDFCYSSIVAPKMLVNLVTMNRGISFVGCLVQFFFFCTFVVTESFLLGVMAYDRFVAIRNPLLYTVAMSQRLCAMLVLGSYAWGVVCSLILTCSALNLSFYGFNMINHFFCEFSSLLSLSRSDTSVSQLLLFVFATFNEISTLLIILLSYVLIVVTILKMKSASGRRKAFSTCASHLTAITIFHGTILFLYCVPNSKNSRHTVKVASVFYTVVIPMLNPLIYSLRNKSRDFRKAFQRLLCCARRAACRRRAAHGDRPRASGCLARAGPPPSPGAPSDDDDDDAGATPPARLLEPWAGCNGGTTTVDSDSSLDEPGRQGFSSESKV
modifications: chimera 2
In the case of B2, the “concentration increase value of the cAMP” value in the experiment with HEK293T cells [2] (eugenol 300 μM minus eugenol 0 μM) was 0.0002 pmol/microgram.

B3: Rho-mOREG: mouse olfactory receptor for eugenol with N-terminal Rho tag (protein)
chain: MNGTEGPNFYVPFSNKTGVVMTLSDGNHSGAVFTLLGFSDYPELTIPLFLIFLTIYSITVVGNIGMIVIIRINPKLHIPMYFFLSHLSFVDFCYSSIVAPKMLVNLVTMNRGISFVGCLVQFFFFCTFVVTESFLLGVMAYDRFVAIRNPLLYTVAMSQRLCAMLVLGSYAWGVVCSLILTCSALNLSFYGFNMINHFFCEFSSLLSLSRSDTSVSQLLLFVFATFNEISTLLIILLSYVLIVVTILKMKSASGRRKAFSTCASHLTAITIFHGTILFLYCVPNSKNSRHTVKVASVFYTVVIPMLNPLIYSLRNKDVKDTVKKIIGTKVYSS
modifications: Rho-mOREG
notes: mouse olfactory receptor for eugenol with N-terminal Rho tag
On to B3, for which the “concentration increase value of the cAMP” value was 0.0012 with HEK293T cells [1] (eugenol 30 μM), 0.0026 with HEK293T cells [1] (eugenol 1000 μM) and 0.0018 in the experiment on HEK293T cells [2] (eugenol 300 μM (Table 5)). Also, the cAMP concentration in the experiment on HEK293T cells [2] (eugenol 0 μM) is 0.00633 pmol/µg.

B4: chimera1: IC4 domain of the Rho-myc-mOREG is substituted with the IC4 domain of the beta-1 adrenergic receptor (protein)
chain: MNGTEGPNFYVPFSNKTGVVEQKLISEEDLEFMTLSDGNHSGAVFTLLGFSDYPELTIPLFLIFLTIYSITVVGNIGMIVIIRINPKLHIPMYFFLSHLSFVDFCYSSIVAPKMLVNLVTMNRGISFVGCLVQFFFFCTFVVTESFLLGVMAYDRFVAIRNPLLYTVAMSQRLCAMLVLGSYAWGVVCSLILTCSALNLSFYGFNMINHFFCEFSSLLSLSRSDTSVSQLLLFVFATFNEISTLLIILLSYVLIVVTILKMKSASGRRKAFSTCASHLTAITIFHGTILFLYCVPNSKNSRHTVKVASVFYTVVIPMLNPLIYSLRNKDFRKAFQRLLCCARRAACRRRAAHGDRPRASGCLARAGPPPSPGAPSDDDDDDAGATPPARLLEPWAGCNGGTTTVDSDSSLDEPGRQGFSSESKV
modifications: chimera 1
notes: IC4 domain of the Rho-myc-mOREG is substituted with the IC4 domain of the beta-1 adrenergic receptor
Take B4: the “concentration increase value of the cAMP” value stood at 0.0065 in the experiment with HEK293T cells [1] (eugenol 30 μM), 0.031 with HEK293T cells [1] (eugenol 1000 μM) and 0.018 in the experiment with HEK293T cells [2] (eugenol 300 μM (Table 5)). Moreover, the “concentration increase value of the cAMP compared with the other olfactory receptors (in words)” value with HEK293T cells [1] (regardless of the concentration of eugenol, Table 5) was “greater”. Moreover, in the experiment with HEK293T cells [2] (eugenol 300 μM, Table 4), the “concentration increase value compared with the other olfactory receptors derived from the mOREG (in words)” value is “much greater”.

Source of the values: patent US8822165B2, “Method for producing cAMP using chimeric olfactory receptor” (Panasonic Corporation, priority 2010, dated 2014).
